Experimental findings from EP1298214A2, “Plant thioesterases” (Calgene LLC, priority 1990, dated 1991) are described below.

For data set [1], the target named is T1, Bay C12-preferring acyl-ACP thioesterase (Umbellularia californica, UniProt Q41635).
T1 sequence (Q41635 84-382): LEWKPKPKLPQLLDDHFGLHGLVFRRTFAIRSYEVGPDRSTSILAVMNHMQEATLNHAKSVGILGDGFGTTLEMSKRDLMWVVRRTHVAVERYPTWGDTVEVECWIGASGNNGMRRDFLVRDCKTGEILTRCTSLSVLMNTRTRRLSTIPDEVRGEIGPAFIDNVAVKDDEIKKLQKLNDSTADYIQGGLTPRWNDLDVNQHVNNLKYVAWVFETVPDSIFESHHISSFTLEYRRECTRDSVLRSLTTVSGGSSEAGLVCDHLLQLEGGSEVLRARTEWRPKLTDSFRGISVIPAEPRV
Briefly: Bay thioesterase substrate specificity as a function of chain length, ammonium sulfate fraction. It counts as biochemical. Details: The cotyledons from such seeds are dissected from the other seed parts and stored frozen at -70°; This comprises the source tissue for enzyme extraction; from tissue; host or cells: immature seed cotyledons of Umbellularia californica. The settings on record: C8-ACP activity set to 1.0; label is acyl chain length of the acyl-ACP. On the procedure: To assay for C12 thioesterase activity the following mixture is incubated at 30° for 30 min: "buffer" comprising 7mM KH2PO4-KOH pH 8, 20% v/v glycerol, 1mM dithiothreitol (DTT), 0.1% v/v Triton X100; sample to be tested for activity in the same or similar buffer as the "extraction buffer" described in Example 2; […] and final lauroyl-ACP concentration of 0.5µM. Lauroyl-ACP substrate is prepared according to the method of Rock et al (Methods in Enzymology (1981) 72:397-403), using ACP prepared from Escherichia coli by the method of Rock and Cronan (Methods in Enzymology (1981) 71:341-351). The laurate is radiolabeled in the carboxylate group at a specific radioactivity of 50-60µCi/µmol.
(§1) The reaction is stopped by adding 0.5ml cold (0°) 10% v/v acetic acid. The fatty acid product of the hydrolytic enzyme action is extracted away from the unhydrolyzed substrate by adding 1ml diethyl ether and mixing vigorously. After settling for a few minutes the upper ether layer is transferred to 5ml scintillation fluid for determination of radioactivity by liquid scintillation spectrometry. Additional ether extractions may be performed to recover remaining traces of the reaction product for more accurate quantitation of the enzyme activity if desired. The amount of ether-extracted radioactivity is a direct measure of C12-preferring acyl-ACP thioesterase activity, provided the amount of enzyme is not sufficient to hydrolyze more than about 25% of the substrate. With greater activity than this the relationship between radioactivity in the ether layer and the quantity of enzyme becomes markedly nonlinear. The enzyme preparation must then be diluted appropriately to bring the activity into the linear range of the assay.
The crude extract is subjected to ammonium sulfate fractionation as follows. Sufficient solid ammonium sulfate is gradually added with stirring over 30 min to achieve 70% saturation. The preparation is then stirred for a further 30 min. After centrifuging as described above, the pelleted material is resuspended in extraction buffer (2ml/g original tissue weight) and stirred for 10 min until dissolved. Ammonium sulfate is then added as before, but this time only sufficient to achieve 50% saturation. After centrifuging as before, the supernatant fraction is discarded. The pelleted material, which contains the C12-preferring acyl-ACP thioesterase, may be frozen by immersion in liquid nitrogen and then stored at -70° at this stage if desired. The resulting material is referred to as the "ammonium sulfate fraction." Very little of the C12-preferring acyl-ACP thioesterase activity is lost if the pellet is frozen very rapidly. […]

Data set [2] deals with T2, bay thioesterase enzyme purified from developing seeds (Umbellularia californica, UniProt Q41635).
T2 construct: The cotyledons from such seeds are dissected from the other seed parts and stored frozen at -70°; This comprises the source tissue for enzyme extraction; from tissue; host or cells: immature seed cotyledons of Umbellularia californica
T2 sequence (Q41635 84-382): T1 sequence (Q41635 84-382)
As to the kind of experiment: Substrate analysis of bay thioesterase purified from developing seeds. It counts as biochemical. To be noted: enzyme purified from developing seeds as in Example 2. On the procedure:
To assay for C12 thioesterase activity the following mixture is incubated at 30° for 30 min: "buffer" comprising 7mM KH2PO4-KOH pH 8, 20% v/v glycerol, 1mM dithiothreitol (DTT), 0.1% v/v Triton X100; sample to be tested for activity in the same or similar buffer as the "extraction buffer" described in Example 2; and 5µl of ^14C-radiolabeled lauroyl-ACP substrate for a total volume of 100µl and final lauroyl-ACP concentration of 0.5µM. Lauroyl-ACP substrate is prepared according to the method of Rock et al (Methods in Enzymology (1981) 72:397-403), using ACP prepared from Escherichia coli by the method of Rock and Cronan (Methods in Enzymology (1981) 71:341-351). The laurate is radiolabeled in the carboxylate group at a specific radioactivity of 50-60µCi/µmol.
as §1
The dialyzed material is then applied to a column of immobilized ACP (2.5cm diameter x 10.5cm bed height). This column is manufactured by coupling Escherichia coli ACP to cyanogen bromide-activated Sepharose 4B according to instructions supplied by the manufacturer of this column packing (Pharmacia Inc., Piscataway, NJ). The E. coli ACP is prepared as referenced in Example 1. Before use the column is equilibrated with ACP1 buffer. The dialyzed material from the cation exchange column is applied at 1-1.3ml/min, and fractions of 8ml volume are collected throughout the procedure. Fractions are assayed for C12-preferring acyl-ACP thioesterase activity, and for total protein content using a Cobmassie Blue assay method (Bio-Rad Inc., Richmond, CA, catalog no. 500-0001). A substantial amount of protein washes through the column without binding. Almost all of the C12-preferring acyl-ACP thioesterase activity binds. […]

For 14:0-ACP, the “Relative Thioesterase Activity” value in data set [1] is recorded as 4.0. For the same substance, the “Hydrolysis Activity (mean cpm in ether extract)” value in data set [2] is given as 69 cpm.
The matching figures for 16:0-ACP: 4.7 and 12 cpm.
For decanoyl-ACP [10:0-ACP], in that order: 2.7 and 0 cpm.
For lauroyl-ACP [12:0-ACP], in that order: 24.0 and 1261 cpm.
